The assay addresses histone H4 (UniProt P62806 2-103). Nature of the assay: IP with anti-TOX from EL4 lysate, Western blot (FIG. 60L). Background: A western blot detects proteins with antibodies after separation by electrophoresis.

B1: TOX (other)
chain: MDVRFYPPPAQPAAAPAAPCLGPSPCLDPYYCNKFDGENMYMSMTEPSQDYVPASQSYPGPSLESEDFNIPPITPPSLPDHSLVHLNEVESGYHSLCHPMNHNGLLPFHPQTMDLPEITVSNMLGQDGALLSNSISVMQEIGNAEGAQYSSHPQMAAMRPRGQPTDIRQQASMMQPGQLTTINQSQLSAQLGLNMGGTNVAHNSPSPPGSKSATPSPSSSVHEDECEDASKINGGEKRPASDMGKKPKTPKKKKKKDPNEPQKPVSAYALFFRDTQAAIKGQNPNATFGEVSKIVASMWDGLGEEQKQVYKKKTEAAKKEYLKQLAAYRASLVSKSYTDPVDVKTSQPPQLVNSKPSVFHGPSQAHSALYLSSHYHQQPGMTPQLTAMHPSLPRNIAPKPNNQMPVTVSIANMAVSPPPPLQISPPLHQHLSMQQHQSLAMQQPLGSQLPMQVQTALHSPTMQQGFTLQPDYQTIINPTSTAAQVVTQAMEYVRSGCRNPPPQPVDWSTDYCSSGGMQRDKALYLT
notes: Bait of the immunoprecipitations (anti-TOX ab155768, Abcam); also called TOX protein
B1: the binding result is listed as “binds”.

(Values after patent US20210071139A1 (published 2021).)
